Measurements reported in paper doi:10.1101/2024.05.14.593897.

Biological target: T1, KBTBD4 (construct for structure determination) (human), Q9NVX7
T1 chain: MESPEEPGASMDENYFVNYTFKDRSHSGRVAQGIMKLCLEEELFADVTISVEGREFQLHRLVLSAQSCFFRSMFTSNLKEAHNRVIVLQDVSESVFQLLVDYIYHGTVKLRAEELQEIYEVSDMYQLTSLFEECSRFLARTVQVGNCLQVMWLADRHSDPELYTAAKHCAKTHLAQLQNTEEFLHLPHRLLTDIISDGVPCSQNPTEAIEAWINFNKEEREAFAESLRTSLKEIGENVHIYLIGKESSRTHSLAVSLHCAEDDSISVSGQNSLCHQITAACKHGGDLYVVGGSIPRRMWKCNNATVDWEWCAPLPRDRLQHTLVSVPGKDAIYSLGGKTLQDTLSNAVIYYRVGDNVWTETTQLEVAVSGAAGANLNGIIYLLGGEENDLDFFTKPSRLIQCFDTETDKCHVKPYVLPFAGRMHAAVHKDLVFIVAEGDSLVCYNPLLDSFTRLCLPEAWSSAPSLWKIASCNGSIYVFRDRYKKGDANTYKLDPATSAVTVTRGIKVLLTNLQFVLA
Experiment: cryo-EM structure
Settings: remark: other sources report otherwise

B1: KBTBD4 (construct for structure determination), Q9NVX7-1 1-518 (natural protein)
chain: MESPEEPGASMDENYFVNYTFKDRSHSGRVAQGIMKLCLEEELFADVTISVEGREFQLHRLVLSAQSCFFRSMFTSNLKEAHNRVIVLQDVSESVFQLLVDYIYHGTVKLRAEELQEIYEVSDMYQLTSLFEECSRFLARTVQVGNCLQVMWLADRHSDPELYTAAKHCAKTHLAQLQNTEEFLHLPHRLLTDIISDGVPCSQNPTEAIEAWINFNKEEREAFAESLRTSLKEIGENVHIYLIGKESSRTHSLAVSLHCAEDDSISVSGQNSLCHQITAACKHGGDLYVVGGSIPRRMWKCNNATVDWEWCAPLPRDRLQHTLVSVPGKDAIYSLGGKTLQDTLSNAVIYYRVGDNVWTETTQLEVAVSGAAGANLNGIIYLLGGEENDLDFFTKPSRLIQCFDTETDKCHVKPYVLPFAGRMHAAVHKDLVFIVAEGDSLVCYNPLLDSFTRLCLPEAWSSAPSLWKIASCNGSIYVFRDRYKKGDANTYKLDPATSAVTVTRGIKVLLTNLQFVLA
stoichiometry N: 2
